Source: the DeepSol protein solubility set

Assay: soluble on expression in E. coli; label from the status in PepcDB or PDB records

Row | Sequence | soluble on expression in E. coli
1 | MNNTPKLKLGIVAVSRDCFPMELSENRRKAVVDAYNGEIFECLTTVENEKDMRKALKEVKSAGVNALVVYLGNFGPETPETLIAKEFDGPVMFAAAAEERGDNLVNGRGDAYCGMLNASYNLALRNINAYIPEYPVGTASDVANMINEFVPVATALIGLKNLKIISFGPRPQDFLACNAPIKQLYNLGVEIEENSELDLFASFNEHENDSRIPDVVKDMEEELGEGNKMPGILPKLAQYELTLLDWAEEHKGSREYVVFANKCWPAFQTQFGCVPCYVNSRLTARGIPVSCEVDIYGALSEYIGTCVSQDVVTLLDINNTVPKDMYESEIKSKFNYTLKDTFMGFHCGNTAACKLTSGTMKNQMIMARALEPNQEPNITRGTLEGDIVPGEITFFRLQSNADSELTAYVAEGEVLPVKTRSFGSIGVFAIPQMGRFYRHVLIENRFPHHGAVAFGHFGKAIYNLFRYLGVKEVGFNRPKEMLYKTENPFELEHHHHHH | soluble
2 | MVAEGFRLDLLLTIAQLVPSTYHYQVKQLDKPDKDKDLKAEIQAIYDEHKGNYGYRRIHLELRNRGFSVNHKKVQGLMKELGLTARIRRRKRYKSYKGDVGKKAPNLIERAFEGAKPFEKCYTDVTEFALPNCAEKLYLSPVLDGYNSEIIDFTLSRSPNLIQVKTMLEKVFPEETYPNTILHSDQGWQYQHEVYHRFLASKGIRPSMSRKGTSTDNSMMESFFGVLKTEMFYGFEKNFKSLDQLEQAITEYIFYYNNKRIKTKLKGLSPVQYRTKSFQ | not soluble
3 | MAINPFFTLVQRPVQSIEMAPPKPSAKGAKKAAKTVTKPKDGKKRRHARKESYSVYIYRVLKQVHPDTGVSSKAMSIMNSFVNDVFERIAAEASRLAHYNKRSTISSREIQTAVRLILPGELAKHAVSEGTKAVTKYTSSK | not soluble
4 | MKLTIHEIAQVVGAKNDISIFEDTQLEKAEFDSRLIGTGDLFVPLKGARDGHDFIETAFENGAAVTLSEKEVSNHPYILVDDVLTAFQSLASYYLEKTTVDVFAVTGSNGKTTTKDMLAHLLSTRYKTYKTQGNYNNEIGLPYTVLHMPEGTEKLVLEMGQDHLGDIHLLSELARPKTAIVTLVGEAHLAFFKDRSEIAKGKMQIADGMASGSLLLAPADPIVEDYLPIDKKVVRFGQGAELEITDLVERKDSLTFKANFLEQALDLPVTGKYNATNAMIASYVALQEGVSEEQIRLAFQHLELTRNRTEWKKAANGADILSDVYNANPTAMKLILETFSAIPANEGGKKIAVLADMKELGDQSVQLHNQMILSLSPDVLDIVIFYGEDIAQLAQLASQMFPIGHVYYFKKTEDQDQFEDLVKQVKESLGAHDQILLKGSNSMNLAKLVESLEN | soluble
5 | MGSDKIHHHHHHMSLPLYQQISDDLKQKIVTKTFKSGDQLPTEKELSETYSVSRITAKRALTELEQLGLVSRTRGKGTFVQELNKNHTKLLKRVLFIIPFEGMSFGDFTQGLVPALKVENTTVFITYESYLKENTADDIKENFDGLIYYPMYTEDYLDILLELSLQNFPVVLLDKQIYDLGFPCVSSDNFNGGEQAAQALLNLGHKRIAFVASNDTHHPQTTRNRYLGYVKVLKEQGIKFHTTLDDSLYTESSVLELIHNEKVTGLICENDLVALQTMKTLQDSHFSVPNDISIIGFDDIQAASLSNPPLTTIAQDFIGMGRIAGELLLDWIKSGQTPKDVKVPINLIKRKTTEELK | not soluble
6 | MRHVISVLVQDHPRVLNRITGLFARRGFNLESLAVGTTHQPGLSRICLVVSGDDRTLEQVEKQLNRLIEVLKVTDHTEPHVERELCLVKVHVAGLEERLAVKDIQEAFRARVVDVAQKSLILELTGDTQKVNSFIEALRPYGILEVMRTGAVAMSRGDRVLKVREKKEAV | soluble
7 | MGSSHHHHHHSSGLVPRGSHMNSILITGCNRGLGLGLVKALLNLPQPPQHLFTTCRNREQAKELEDLAKNHSNIHILEIDLRNFDAYDKLVADIEGVTKDQGLNVLFNNAGIAPKSARITAVRSQELLDTLQTNTVVPIMLAKACLPLLKKAAKANESQPMGVGRAAIINMSSILGSIQGNTDGGMYAYRTSKSALNAATKSLSVDLYPQRIMCVSLHPGWVKTDMGGSSAPLDVPTSTGQIVQTISKLGEKQNGGFVNYDGTPLAW | soluble
8 | MTEVAKGVATHQRLVALLTQENARYRVVNHEAVGKCEAVSEIRGTALGQGAKALVCKVKGNGVNQHVLAILAADQQADLSQLASHLGGLRASLASPAEVDMLTGCVFGAIPPFSFHPNLKLVADPLLFERFDEIAFNAGLLEKSVIMNTQDYLRIARPELAVFRRFQSSPTA | not soluble
9 | MNADAPLKSYSGHHSETHKSESKKKKDKKTFEEEDDVENVKRKPAESSDDEVVVVVVKKDQKGKRGKKSKKPKKKQESSDDSSDNSDSSESSDDDKKSKKKKKKSKKDSSDSSDSSDSSDSSDDGKKKKKKKSKKDSSDDSSDSSDSSDSSDSSDDDKKKKKKSKKSKNKGSSSDSSDSSDDSSDDEKPKKKKKKSKKPKKAPKSDEEVTIKIIKKPKKKPEDLERRRHRVKKTEEHEEEKDKEEHHESNDENMEFDTRARGAPSSPKLTRRAKRSESSDDEVELQKTPEIDDNKPSRKDGDHDSDMEESEKSKKSSKKDHNHHHHHCCCGAQNEHEHTHHEEFSKTDKVVNKYHDCAKCQYKCPICT | not soluble
10 | MSLKPRIAIVGLGLIGGSLARRLVNAGCEVTAWNHNDRPYATAEADGIICKPTLAALAETKPNVLVLCNPLKAMPEILGALKPLIDTETTTLTDVGSVKGMVRDQVKAIGLDGCYVGAHPMAGNELSGWEASDPTLYDDALWAITVDEHTEYRRFRAVADMIVNRCGNRLIVLDDATHDRCAALISHMPHVIATAMINELVANPNRNIAAALAAGSWRDMTRVALTDPNRTRAMVEEDAANVETLLRNMANRLTLVANVLHDMADTGVRPTEGDVKQMDRFFAQGQPFRDYKAASRQPEYAEHCATVELSIPENDWQRTLLESARRGEHIVRFDGERTAIAQARSVEGHHHHHH | soluble
11 | MSNNEIVFVTGNANKLKEVQSILTQEVDNNNKTIHLINEALDLEELQDTDLNAIALAKGKQAVAALGKGKPVFVEDTALRFDEFNGLPGAYIKWFLKSMGLEKIVKMLEPFENKNAEAVTTICFADSRGEYHFFQGITRGKIVPSRGPTTFGWDSIFEPFDSHGLTYAEMSKDAKNAISHRGKAFAQFKEYLYQNDF | not soluble
12 | MGSDKIHHHHHHMLSHRLQDTSLRYFLEVVRTGSLTEAAQRLNVTVSAVSRQVAALESWLGVPLFDRRPRGMVASAAGELLAAYALRNALEADRVVTEIDALQGLRRGRVRVASSAGFAIEFLPRAIADFRERYPGLHFHVRVAPPAEVTGIVLHGDADIGITYSRAAEQGIRVEHRQAAPVIAIMRPDHALARFRSITLSQMLPYPLALPEGDNTVRQLFDIACGERGVAFEPVLVSNQFETLTSFVLHGGGLSISGGVTVGDRLRRGELHAATIRERGMKSRAIELQTLAGRTLPEGVRTFLGFVRDRLVEEAGIGS | not soluble
13 | MSLHYPFVTNDDIEWMLSICVEWRLPEIAKEIYTTLGNQMLSAHNIIESIANFSRAGKYELVKSYSWLLFEASCMEGQKLDDPVLNAIVSKNSPAEDDVIIPQDILDCVVTNSMRQTLAPYAVLSQFYELRDREDWGQALRLLLLLIEFPYLPKHYLVLLVAKFLYPIFLLDDKKLMDEDSVATVIEVIETKWDDADEKSSNLYETIIEADKSLPSSMATLLKNLRKKLNFKLCQAFMEGHHHHHH | not soluble
14 | QAAELEITVTNATKGIYFTPLIVAAHDSDLHMFKVGESATAELEAMAEGGDISGLSTVIGNAGGAVVENPAGGILNPGAATTFTLDSGDHG | not soluble
15 | SGALWDVPSPAATQKATLSEGVYRIMQRGLFGKTQVGVGIHMEGVFHTMWHVTRGSVICHETGRLEPSWADVRNDMISYGGGWRLGDKWDKEEDVQVLAIEPGKNPKHVQTKPGLFKTLTGEIGAVTLDFKPGTSGSPIINKKGKVIGLYGNGVVTKSGDYVSAITQAERIGEGPDYEVDEDIFRKKRLTIMDLHPGAGKTKRILPSIVREALKRRLRTLILAPTRVVAAEMEEALRGLPIRYQTPAVKSDHTGREIVDLMCHATFTTRLLSSTRVPNYNLIVMDEAHFTDPCSVAARGYISTRVEMGEAAAIFMTATPPGSTDPFPQSNSPIEDIEREIPERSWNTGFDWITDYQGKTVWFVPSIKAGNDIANCLRKSGKRVIQLSRKTFDTEYPKTKLTDWDFVVTTDISEMGANFRAGRVIDPRRCLKPVILTDGPERVILAGPIPVTPASAAQRRGRIGRNPAQEDDQYVFSGDPLKNDEDHAHWTEAKMLLDNIYTPEGIIPTLFGPEREKTQAIDGEFRLRGEQRKTFVELMRRGDLPVWLSYKVASAGISYKDREWCFTGERNNQILEENMEVEIWTREGEKKKLRPKWLDARVYADPMALKDFKEFASGRK | soluble
16 | MGSDKIHHHHHHMRLLSQVNLNSLKIVESAARHGNFTRAGEEQFITASAVSQRVKSLEDQLRFKIFQRGGNAVSLTPEGETYVSRVREALERIVAASMEATGQSQEHVLKISVLPTFAARWLFPRLPEFQRRYPDIVMRVSTSYATHEFSTSDFDLEIRYGDGHFNGLPSDLLFREDLTPVCSRKLFHEVLGDKPVSKVEPDDLRHFTLLHSDTCTQNWQSWLGFAGASFVLSETKSIYFDSCMMSYEAANAGMGFAVANRAYMASDIRAEKLVAPFAVHHPNSAGWYFVSPHKCLAARKVLLFKQWVMAEAALTQRQLDSEIRDLATEAV | not soluble
17 | MQLGETAEEACLRELYEETGLQLEIERLAFIHENFFTGQESDFLNKVNCHELSFYFLMKPLTENLSVKSESFGTDGSKEFLKWIPIAEYKNYKAFPTFFADELKNLSVNSQIKRIVTTELEHHHHHH | not soluble
18 | MGSDKIHHHHHHMSRTVVISQPTYLPWLGYFELIAKSDVFVFLDNVQCVKQSWHNRNRLKGNDDQLIWLTVPVKAHPLDTPLSKIQILNNPSVWRRKHLGTIQTCLGSAVYFHTIFPFIQEFINYEYEYLVDLNISLIKLFADLLGLSPNFVKASDLNPQGRRTEMLVNLCQQLDADYYYSPMGSKVYIEEEKHLFIEEDIKLNYQIWEHPCYSQRGKIFVSHLSILDTLMNIGLEATRSLIIPNKLKDI | not soluble
19 | MGHHHHHHSHPQDNDFLSRKAQDCYFMKLHHCPGNHSWDSTISGSQRAAFCDHKTTPCSSAIINPLSTAGNSERLQPGIAQQWIQSKREDIVNQMTEACLNQSLDALLSRDLIMKEDYELVSTKPTRTSKVRQLLDTTDIQGEEFAKVIVQKLKDNKQMGLQPYPEILVVSRSPSLNLLQNKSM | not soluble
20 | MADDPHVLAFLARVHQGRRDRVEDHLHEHFIRERNLHQRPQFPPLQLVPVQAEHEYEHPFPLVDVFKFSLQGDSVKTASSSWQGLQWKVKCSIYNLPGELLATRVSVDFFNLMDRVFKATVKYEMNEKFAAANEFAEVVIDSNHSTIVFPETGAFAPGRLVDGMLPTEIAVKIKLEHAEIVDQFSYNNQSWVMGTRWVRYGDECSVRMNFDVLKNLNPCHDKFFDDLREQVLSPKEARAFFDFASAIFNRSFMGLDLFHESVRNGLKFGFTTNWDSLNTVDSEFDFNSRTAFPGYQNVLYEQPSELTSISNRETAGMCQIFKLNLDPSDVTTRFQVASMNNVKSHTSQFTFYLENSPNGYLLIAGGCFQMESRQLVNLKLTLFDSGVSCRNIQTFRILHKEQSTIKVVIALLDDDKMEKMSRGKLLLNFQMHMNGTISNVVRNFEDQTKRIGDFAMPGLVTGYINCRDKKRIGVCKEHLANNSEHLNMLFFNTVFEDCGKNEITVNEDSDIVLDALDIIYHRSLAIFPAQINRVLDLAGYWLSATMHRFMEIAILHSTHISDSAKLELAAEHHFDIIKYVARHPRYASTYHLSLTDEEIMQVRIPADNEVDGGTGGRPRRVEDLMDLEEQQE | not soluble
